± gives the uncertainty stated by the source.

The nature of this data set: abundance fitness (aPCA) (normalised: wild type 0, dead -1); higher = more abundant; growth selection in yeast, the domain comes from the species named. To be noted: Homo sapiens.
For the substance “Transcriptional activator Myb Q200V, P10242”, the abundance fitness is -0.087 ± 0.074. Then “Transcriptional activator Myb Q200W, P10242”, with -0.345 ± 0.094; and “Transcriptional activator Myb Q200Y, P10242”, with -0.259 ± 0.12; and “Transcriptional activator Myb R153C, P10242”, with -0.451 ± 0.098. The substance “Transcriptional activator Myb R153D, P10242” displayed an abundance fitness of -0.25 ± 0.095. Regarding “Transcriptional activator Myb R153E, P10242”, the abundance fitness is -0.144 ± 0.079. With “Transcriptional activator Myb R153F, P10242”, the abundance fitness was -0.068 ± 0.094. In turn, “Transcriptional activator Myb R153I, P10242” showed an abundance fitness of -0.284 ± 0.13. The value for “Transcriptional activator Myb R153L, P10242” was -0.098 ± 0.073; that for “Transcriptional activator Myb R153M, P10242” was -0.11 ± 0.11. Then “Transcriptional activator Myb R153N, P10242”, with 0.02 ± 0.13; and “Transcriptional activator Myb R153P, P10242”, with -1.12 ± 0.18; and “Transcriptional activator Myb R153Q, P10242”, with -0.031 ± 0.092. In the case of “Transcriptional activator Myb R153S, P10242”, the abundance fitness was -0.121 ± 0.06.

In turn, “Transcriptional activator Myb R153T, P10242” showed an abundance fitness of -0.125 ± 0.14.

Substance “Transcriptional activator Myb R153V, P10242” had an abundance fitness of -0.199 ± 0.084. Then “Transcriptional activator Myb R153Y, P10242”, with -0.084 ± 0.11. Substance “Transcriptional activator Myb R176A, P10242” had an abundance fitness of -0.217 ± 0.065. The value for “Transcriptional activator Myb R176C, P10242” was -0.148 ± 0.12; that for “Transcriptional activator Myb R176D, P10242” was -0.66 ± 0.14.

Regarding “Transcriptional activator Myb R176E, P10242”, the abundance fitness was -0.677 ± 0.11. In the case of “Transcriptional activator Myb R176F, P10242”, the abundance fitness was -0.733 ± 0.25.

The substance “Transcriptional activator Myb R176G, P10242” returned an abundance fitness of -0.728 ± 0.062.

“Transcriptional activator Myb R176H, P10242” gave an abundance fitness of 0.043 ± 0.16.

“Transcriptional activator Myb R176I, P10242”: the abundance fitness is -0.225 ± 0.16. Then “Transcriptional activator Myb R176K, P10242”, with -0.022 ± 0.097; and “Transcriptional activator Myb R176L, P10242”, with -0.423 ± 0.074. Take “Transcriptional activator Myb R176M, P10242”: the abundance fitness is -0.584 ± 0.11. In the case of “Transcriptional activator Myb R176N, P10242”, the abundance fitness is -0.905 ± 0.2. The value for “Transcriptional activator Myb R176P, P10242” was -0.87 ± 0.15; that for “Transcriptional activator Myb R176Q, P10242” was -0.513 ± 0.16; that for “Transcriptional activator Myb R176S, P10242” was -0.457 ± 0.072. Take “Transcriptional activator Myb R176T, P10242”: the abundance fitness was -0.223 ± 0.096.

“Transcriptional activator Myb R176V, P10242” came in with an abundance fitness of -0.22 ± 0.066. With “Transcriptional activator Myb R176W, P10242”, the abundance fitness was -0.436 ± 0.064. The value for “Transcriptional activator Myb R176Y, P10242” was -0.651 ± 0.14. The value for “Transcriptional activator Myb R190A, P10242” was -0.023 ± 0.07.

Substance “Transcriptional activator Myb R190C, P10242” came in with an abundance fitness of -0.117 ± 0.18. Substance “Transcriptional activator Myb R190D, P10242” registered an abundance fitness of -0.073 ± 0.13. Then “Transcriptional activator Myb R190E, P10242”, with -0.161 ± 0.093; and “Transcriptional activator Myb R190F, P10242”, with 0.009 ± 0.13; and “Transcriptional activator Myb R190H, P10242”, with -0.189 ± 0.17. Then “Transcriptional activator Myb R190I, P10242”, with -0.265 ± 0.14. As to “Transcriptional activator Myb R190K, P10242”, the abundance fitness was 0.137 ± 0.12. “Transcriptional activator Myb R190L, P10242” came in with an abundance fitness of -0.131 ± 0.061.

With “Transcriptional activator Myb R190M, P10242”, the abundance fitness stood at 0.06 ± 0.14. As to “Transcriptional activator Myb R190N, P10242”, the abundance fitness was -0.196 ± 0.19. In the case of “Transcriptional activator Myb R190P, P10242”, the abundance fitness was -0.335 ± 0.083. “Transcriptional activator Myb R190Q, P10242” displayed an abundance fitness of 0.026 ± 0.12. “Transcriptional activator Myb R190S, P10242” displayed an abundance fitness of -0.074 ± 0.065. On to “Transcriptional activator Myb R190T, P10242”, for which the abundance fitness is -0.131 ± 0.08. “Transcriptional activator Myb R190V, P10242” displayed an abundance fitness of -0.01 ± 0.089.

Substance “Transcriptional activator Myb R190W, P10242” came in with an abundance fitness of -0.075 ± 0.11. For “Transcriptional activator Myb R190Y, P10242”, the abundance fitness was -0.461 ± 0.18.

“Transcriptional activator Myb R191A, P10242” had an abundance fitness of 0.036 ± 0.075. “Transcriptional activator Myb R191C, P10242” registered an abundance fitness of 0.172 ± 0.15. The substance “Transcriptional activator Myb R191D, P10242” came in with an abundance fitness of 0.117 ± 0.12. Then “Transcriptional activator Myb R191E, P10242”, with 0.004 ± 0.086; and “Transcriptional activator Myb R191F, P10242”, with -0.164 ± 0.21; and “Transcriptional activator Myb R191G, P10242”, with -0.038 ± 0.068.

In turn, “Transcriptional activator Myb R191I, P10242” yielded an abundance fitness of -0.136 ± 0.16. Substance “Transcriptional activator Myb R191K, P10242” came in with an abundance fitness of -0.192 ± 0.12. The substance “Transcriptional activator Myb R191L, P10242” came in with an abundance fitness of -0.058 ± 0.077.

“Transcriptional activator Myb R191M, P10242” displayed an abundance fitness of -0.091 ± 0.13. Then “Transcriptional activator Myb R191N, P10242”, with -0.07 ± 0.13. For “Transcriptional activator Myb R191P, P10242”, the abundance fitness stood at 0.047 ± 0.11. Regarding “Transcriptional activator Myb R191S, P10242”, the abundance fitness is -0.052 ± 0.076.

“Transcriptional activator Myb R191T, P10242” gave an abundance fitness of 0.022 ± 0.14.

As for “Transcriptional activator Myb R191V, P10242”, the abundance fitness was found to be 0.017 ± 0.094. Substance “Transcriptional activator Myb R191W, P10242” gave an abundance fitness of -0.017 ± 0.088. In turn, “Transcriptional activator Myb R191Y, P10242” came in with an abundance fitness of -0.423 ± 0.16. Then “Transcriptional activator Myb S146A, P10242”, with -0.233 ± 0.15; and “Transcriptional activator Myb S146F, P10242”, with -0.021 ± 0.19; and “Transcriptional activator Myb S146G, P10242”, with -0.159 ± 0.2. The substance “Transcriptional activator Myb S146K, P10242” yielded an abundance fitness of -0.344 ± 0.34. Substance “Transcriptional activator Myb S146L, P10242” showed an abundance fitness of -0.299 ± 0.43. “Transcriptional activator Myb S146P, P10242” showed an abundance fitness of -0.108 ± 0.26. Consider “Transcriptional activator Myb S146V, P10242”, for which the abundance fitness is -0.017 ± 0.29.

“Transcriptional activator Myb S187A, P10242” yielded an abundance fitness of -0.075 ± 0.093. The substance “Transcriptional activator Myb S187C, P10242” came in with an abundance fitness of -0.061 ± 0.1. Then “Transcriptional activator Myb S187D, P10242”, with 0.077 ± 0.12; and “Transcriptional activator Myb S187E, P10242”, with -0.001 ± 0.067; and “Transcriptional activator Myb S187F, P10242”, with -0.26 ± 0.085. As to “Transcriptional activator Myb S187G, P10242”, the abundance fitness was -0.023 ± 0.049. “Transcriptional activator Myb S187H, P10242”: the abundance fitness was -0.011 ± 0.17. In the case of “Transcriptional activator Myb S187I, P10242”, the abundance fitness was -0.033 ± 0.14.

“Transcriptional activator Myb S187K, P10242” returned an abundance fitness of -0.058 ± 0.1.

“Transcriptional activator Myb S187L, P10242” registered an abundance fitness of -0.019 ± 0.066. Then “Transcriptional activator Myb S187M, P10242”, with -0.188 ± 0.13; and “Transcriptional activator Myb S187N, P10242”, with -0.161 ± 0.14. On to “Transcriptional activator Myb S187P, P10242”, for which the abundance fitness was -0.589 ± 0.11.

With “Transcriptional activator Myb S187Q, P10242”, the abundance fitness was 0.125 ± 0.11.

“Transcriptional activator Myb S187R, P10242” gave an abundance fitness of -0.054 ± 0.049. For “Transcriptional activator Myb S187T, P10242”, the abundance fitness was found to be 0.124 ± 0.1.

As to “Transcriptional activator Myb S187V, P10242”, the abundance fitness is -0.081 ± 0.061.

Source of the values: the Human Domainome abundance scans (Beltran et al. 2025).
